# According to patent US20230192896A1 (BIOVERATIV THERAPEUTICS, published 2023):
# Legend:
# [1] = molecular target: T1, free FIXa (activated Factor IX) (human, UniProt P00740 47-191; P00740 227-461); test: BLI; class meaning: paragraph 914
# T1 construct: BLI antigen bought from Haematologic Technologies (HCIXA-0050); also called factor IXa
# FIXa-SM (FIXa+EGR-CMK) = molecular target: T2, FIXa-SM (FIXa+EGR-CMK) (human, UniProt P00740 47-191; P00740 227-461, EGR-CMK (L-Glu-Gly-Arg chloromethyl ketone) covalently bound to the active site); test: BLI; class meaning: paragraph 914
# T2 construct: BLI antigen bought from Haematologic Technologies (HCIXA-EGR); also called FIXa with substrate mimic
binding result [1],binding result (FIXa-SM (FIXa+EGR-CMK)),Binder
binds,,"BIIB-9-416 (antibody, V domains shown, IgG) VH: QVQLVQSGAEVKKPGASVKVSCKASGYTFTSYYMHWVRQAPGQGLEWMGIINPSGGSTSYAQKFQGRVTMTRDTSTSTVYMELSSLRSEDTAVYYCAREGPMLDYPTYSNWFDPWGQGTLVTVS VL: EIVMTQSPATLSLSPGERATLSCRASQSVSSYLAWYQQKPGQAPRLLIYDSSNRATGIPARFSGSGSGTDFTLTISSLEPEDFAVYYCQQRVVWPPTFGGGTKVEIK"
binds,binds,"BIIB-9-471 (antibody, V domains shown, IgG) VH: QVQLQESGPGLVKPSQTLSLTCTVSGGSISSGGYYWSWIRQHPGKGLEWIGYIYYSGSTYYNPSLKSRVTISVDTSKNQFSLKLSSVTAADTAVYYCARSGVSGSGSDNWFDPWGQGTTVTVSS VL: EIVLTQSPATLSLSPGERATLSCRASQSVSRYLAWYQQKPGQAPRLLIYDASNRATGIPARFSGSGSGTDFTLTISSLEPEDFAVYYCQQDYNYPFTFGGGTKVEIK"
binds,,"BIIB-9-885 (antibody, V domains shown, IgG) VH: QVQLVQSGAEVKKPGASVKVSCKASGYTFTSYYMHWVRQAPGQGLEWMGIINPSGGSTSYAQKFQGRVTMTRDTSTSTVYMELSSLRSEDTAVYYCAREGPMLDYPTYSNWFDPWGQGTLVTVSS VL: EIVLTQSPATLSLSPGERATLSCRASQSVSSYLAWYQQKPGQAPRLLIYDASKRATGIPARFSGSGSGTDFTLTISSLEPEDFAVYYCQQRVIWPPTFGGGTKVEIK"
,binds,"BIIB-9-565 (antibody, V domains shown, IgG) VH: QLQLQESGPGLVKPSETLSLTCTVSGGSISSSSYYWGWIRQPPGKGLEWIGSIYYSGSTYYNPSLKSRVTISVDTSKNQFSLKLSSVTAADTAVYYCARAGMYSSYANWFDPWGQGTLVTVSS VL: EIVLTQSPATLSLSPGERATLSCRASQSVSSYLAWYQQKPGQAPRLLIYDASNRATGIPARFSGSGSGTDFTLTISSLEPEDFAVYYCQQDSNLPFTFGGGTKVEIK"
,binds,"BIIB-9-419 (antibody, V domains shown, IgG) VH: QVQLVQSGAEVKKPGASVKVSCKASGYTFTSYYMHWVRQAPGQGLEWMGIINPSGGSTSYAQKFQGRVTMTRDTSTSTVYMELSSLRSEDTAVYYCAREPTFYASYFDLWGRGTLVTVS VL: EIVMTQSPATLSLSPGERATLSCRASQSVSSYLAWYQQKPGQAPRLLIYDSSNRATGIPARFSGSGSGTDFTLTISSLEPEDFAVYYCQQVSTHPYTFGGGTKVEIK"
,binds,"BIIB-9-473 (antibody, V domains shown, IgG) VH: not shown VL: EIVLTQSPATLSLSPGERATLSCRASQSVSSYLAWYQQKPGQAPRLLIYDASNRATGIPARFSGSGSGTDFTLTISSLEPEDFAVYYCQQRSFLPYTFGGGTKVEIK"
,binds,"BIIB-9-619 (antibody, V domains shown, IgG) VH: QVQLVQSGAEVKKPGASVKVSCKASGYTFTSYYMHWVRQAPGQGLEWMGIINPSGGSTSYAQKFQGRVTMTRDTSTSTVYMELSSLRSEDTAVYYCARDGPRVSDYYMDVWGKGTTVTVSS VL: EIVLTQSPATLSLSPGERATLSCRASQSVSSYLAWYQQKPGQAPRLLIYDASNRATGIPARFSGSGSGTDFTLTISSLEPEDFAVYYCQQRDNWPFTFGGGTKVEIK"
binds,binds,"BIIB-9-607 (antibody, V domains shown, IgG) VH: QLQLQESGPGLVKPSETLSLTCTVSGGSISSSSYYWGWIRQPPGKGLEWIGSISYSGSTYYNPSLKSRVTISVDTSKNQFSLKLSSVTAADTAVYYCARDRGYSYEDFDLWGRGTLVTVS VL: DIQMTQSPSTLSASVGDRVTITCRASQSISSWLAWYQQKPGKAPKLLIYKASSLESGVPSRFSGSGSGTEFTLTISSLQPDDFATYYCQQAGRYPLTFGGGTKVEIK"
binds,,"BIIB-9-408 (antibody, V domains shown, IgG) VH: QVQLVQSGAEVKKPGASVKVSCKASGYTFTSYYMHWVRQAPGQGLEWMGIINPSGGSTTYAQKFQGRVTMTRDTSTSTVYMELSSLRSEDTAVYYCARDPGAYDDWSGYDDYGMDVWGQGTTVTVSS VL: EIVLTQSPATLSLSPGERATLSCRASQSVSSYLAWYQQKPGQAPRLLIYDASNRATGIPARFSGSGSGTDFTLTISSLEPEDFAVYYCQQAFVWPPITFGGGTKVEIK"
binds,,"BIIB-9-629 (antibody, V domains shown, IgG) VH: QVQLVQSGAEVKKPGASVKVSCKASGYTFTSYYMHWVRQAPGQGLEWMGVINPSGGSTSYAQKFQGRVTMTRDTSTSTVYMELSSLRSEDTAVYYCARDPSQDYATGTGWFDPWGQGTLVTVSS VL: DIQLTQSPSSLSASVGDRVTITCQASQDISNYLNWYQQKPGKAPKLLIYDASNLETGVPSRFSGSGSGTDFTFTISSLQPEDIATYYCQQLDSLPPTFGGGTKVEIK"
,binds,"BIIB-9-883 (antibody, V domains shown, IgG) VH: QVQLVQSGAEVKKPGASVKVSCKASGYTFTSYYMHWVRQAPGQGLEWMGIINPSGGSTSYAQKFQGRVTMTRDTSTSTVYMELSSLRSEDTAVYYCARDGRLSYTWDRWGQGTLVTVSS VL: DIQMTQSPSSLSASVGDRVTITCQASQDITNYLNWYQQKPGKAPKLLIYDASNLETGVPSRFSGSGSGTDFTFTISSLQPEDIATYYCQQADHFPFTFGGGTKVEIK"
,binds,"BIIB-9-573 (antibody, V domains shown, IgG) VH: QLQLQESGPGLVKPSETLSLTCTVSGGSISSSSYYWGWIRQPPGKGLEWIGSIYYSGSTYYNPSLKSRVTISVDTSKNQFSLKLSSVTAADTAVYYCARESKTKGYLDLWGRGTLVTVSS VL: EIVLTQSPGTLSLSPGERATLSCRASQSVSSSFLAWYQQKPGQAPRLLIYGASSRATGIPDRFSGSGSGTDFTLTISRLEPEDFAVYYCQQSHSPPYTFGGGTKVEIK"
binds,binds,"BIIB-9-446 (antibody, V domains shown, IgG) VH: QVQLVQSGAEVKKPGSSVKVSCKASGGTFSSYAISWVRQAPGQGLEWMGGIIPIFGTASYAQKFQGRVTITADESTSTAYMELSSLRSEDTAVYYCARGLEVGYYGYFDYWGQGTLVTVSS VL: not shown"
binds,binds,"BIIB-9-472 (antibody, V domains shown, IgG) VH: EVQLVESGGGLVKPGGSLRLSCAASGFTFSSYSMNWVRQAPGKGLEWVSSISSSSSYIYYADSVKGRFTISRDNAKNSLYLQMNSLRAEDTAVYYCARGGRYSGSWSWNIWGQGTMVTVSS VL: not shown"
,binds,"BIIB-9-567 (antibody, V domains shown, IgG) VH: QVQLVQSGAEVKKPGASVKVSCKASGYTFTSYYMHWVRQAPGQGLEWMGIINPSGGSTSYAQKFQGRVTMTRDTSTSTVYMELSSLRSEDTAVYYCARLGRRYYAYDGMDVWGQGTTVTVSS VL: not shown"
,binds,"BIIB-9-451 (antibody, V domains shown, IgG) VH: QLQLQESGPGLVKPSETLSLTCTVSGGSISSSSYYWGWIRQPPGKGLEWIGSISYSGSTYYNPSLKSRVTISVDTSKNQFSLKLSSVTAADTAVYYCARDSGGYYYQGFDYWGQGTLVTVSS VL: not shown"
,binds,"BIIB-9-626 (antibody, V domains shown, IgG) VH: QVQLVQSGAEVKKPGASVKVSCKASGYTFTSYYMHWVRQAPGQGLEWMGVINPSGGSTSYAQKFQGRVTMTRDTSTSTVYMELSSLRSEDTAVYYCARDLQYSMTYFDYWGQGTLVTVSS VL: DIQMTQSPSTLSASVGDRVTITCRASQSISSWLAWYQQKPGKAPKLLIYKASSLESGVPSRFSGSGSGTEFTLTISSLQPDDFATYYCQQDGSYPPLTFGGGTKVEIK"
,binds,"BIIB-9-588 (antibody, V domains shown, IgG) VH: QVQLVQSGAEVKKPGASVKVSCKASGYTFTSYYMHWVRQAPGQGLEWMGIINPSGGSTTYAQKFQGRVTMTRDTSTSTVYMELSSLRSEDTAVYYCARDGGGSYDYWSGYWYDVWGQGTTVTVSS VL: EIVMTQSPATLSVSPGERATLSCRASQSVSSNLAWYQQKPGQAPRLLIYGASTRATGIPARFSGSGSGTEFTLTISSLQSEDFAVYYCQQAYNWPFTFGGGTKVEIK"
,binds,"BIIB-9-611 (antibody, V domains shown, IgG) VH: QVQLVQSGAEVKKPGASVKVSCKASGYTFTSYYMHWVRQAPGQGLEWMGIINPSGGSTSYAQKFQGRVTMTRDTSTSTVYMELSSLRSEDTAVYYCAREVISRVSYFDLWGRGTLVTVSS VL: EIVMTQSPATLSVSPGERATLSCRASQSVSSNLAWYQQKPGQAPRLLIYGASTRATGIPARFSGSGSGTEFTLTISSLQSEDFAVYYCQQDNIHPYTFGGGTKVEIK"
binds,binds,"BIIB-9-1280 (antibody, V domains shown, IgG) VH: QVQLVQSGAEVKKPGASVKVSCKASGYTFTSYYMVWVRQAPGQGLEWMGIINPSGGSTSYAQKFQGRVTMTRDTSTSTVYMELSSLRSEDTAVYYCARGPWYSYYYMDVWGKGTTVTVSS VL: not shown"
binds,binds,"BIIB-9-1266 (antibody, V domains shown, IgG) VH: QVQLVQSGAEVKKPGASVKVSCKASGYTFTSYYMHWVRQAPGQGLEWMGIINPSGGSTSYAQKFQGRVTMTRDTSTSTVYMELSSLRSEDTAVYYCARDHGWAIYGMDVWGQGTTVTVSS VL: EIVMTQSPATLSLSPGERATLSCRASQSVSSYLAWYQQKPGQAPRLLIYDSSNRATGIPARFSGSGSGTDFTLTISSLEPEDFAVYYCQQRLNFPFTFGGGTKVEIK"
binds,binds,"BIIB-9-439 (antibody, V domains shown, IgG) VH: QVQLVQSGAEVKKPGASVKVSCKASGYTFTSYYMHWVRQAPGQGLEWMGIINPSGGSTTYAQKFQGRVTMTRDTSTSTVYMELSSLRSEDTAVYYCAREATESYYYMDVWGKGTTVTVSS VL: EIVMTQSPATLSLSPGERATLSCRASQSVSSYLAWYQQKPGQAPRLLIYDSSNRATGIPARFSGSGSGTDFTLTISSLEPEDFAVYYCQQRDNWPFTFGGGTKVEIK"
